One block for each binder: values may come before it.
Assays:
[1] = target: T1, IL-17A重组蛋白(抗原), IL-17 antigen with a C-terminal 6×His tag, expressed in E. coli BL21 (human, UniProt Q16552 24-155, limits assumed); assay: cell-based or functional assay
T1 sequence: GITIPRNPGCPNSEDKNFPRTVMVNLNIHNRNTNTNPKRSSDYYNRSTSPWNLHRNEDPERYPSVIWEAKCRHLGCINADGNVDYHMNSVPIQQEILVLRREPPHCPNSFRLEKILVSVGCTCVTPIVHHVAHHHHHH

[2] = target: T2, Biotin-IL-17A-His (UniProt Q16552 24-155, limits assumed, biotinylated (Biotin-IL-17A-His); site not stated); assay: ELISA: antibody coated at 2 ug/mL; Biotin-IL-17A-His titrated from 10 ug/mL, 5-fold, 7 points; HRP-streptavidin; OD450
T2 construct: not shown: His tag
T2 sequence (looked up): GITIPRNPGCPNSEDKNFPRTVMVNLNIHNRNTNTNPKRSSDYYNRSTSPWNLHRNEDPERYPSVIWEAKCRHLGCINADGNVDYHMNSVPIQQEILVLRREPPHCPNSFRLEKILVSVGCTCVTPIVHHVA

[3] = target: 生物素化的IL-17A of the ACRO Biosystems IL-17A[Biotinylated]:IL-17RA Inhibitor Screening ELISA Kit (EP-139) (UniProt Q16552); assay: blocking ELISA kit: IL-17RA coated, biotinylated IL-17A; G4-H10-MSC supernatant diluted 5-fold; inhibition = [OD450 positive well - OD450 sample well]/OD450 positive well

- IC50, 阻断Human IL-17A蛋白激活293F-IL-17RA-IL-17Rc-ACT1-NFκB-Luc报告基因细胞株 [1]: 2.23 nM
- EC50 [2]: 10.1 µg/mL
B1: 阳性对照抗体Ixekizumab (antibody, human IgG4 S228P, kappa, V domains shown)
VH: QVQLVQSGAEVKKPGSSVKVSCKASGYSFTDYHIHWVRQAPGQGLEWMGVINPMYGTTDYNQRFKGRVTITADESTSTAYMELSSLRSEDTAVYYCARYDYFTGTGVYWGQGTLVTVSS
VL: DIVMTQTPLSLSVTPGQPASISCRSSRSLVHSRGNTYLHWYLQKPGQSPQLLIYKVSNRFIGVPDRFSGSGSGTDFTLKISRVEAEDVGVYYCSQSTHLPFTFGQGTKLEIKR
notes: also called 阳性抗体

- 结合抑制率 (IL-17A/IL17RA) [3]: 60%
B2: IL-17Nb secreted by G4-H10-MSC (G4-H10:Fc融合蛋白, VHH-(GGGGS)3-VHH-IgG4 Fc) (Fc fusion)
chain: QVQLVESGGGLVQPGGSLRLSCAASGEKLDYFAIGWFRQAPGKEREVVSCVTSSGSSTNYLSSVKDRFTISIDNAKNTVYLQMNSLKPEDTAIYYCASTILLCSDYISAFGTWGQGTQVTVASGGGGSGGGGSGGGGSEVQLVESGGGLVQPGGSLRLSCAASGFSIHIYAMGWYRQAPGKQRELVATITRGGVTNNADSVKGRFTISRDNAKNTAYLQMNSLKPEDTAVYYCNAGGTNGGYWGQGTQVTVSSAPEFLGGPSVFLFPPKPKDTLMISRTPEVTCVVVDVSQEDPEVQFNWYVDGVEVHNAKTKPREEQFNSTYRVVSVLTVLHQDWLNGKEYKCKVSNKGLPSSIEKTISKAKGQPREPQVYTLPPSQEEMTKNQVSLTCLVKGFYPSDIAVEWESNGQPENNYKTTPPVLDSDGSFFLYSRLTVDKSRWQEGNVFSCSVMHEALHNHYTQKSLSLSLGK
